Data published in paper PMC8567202, “Phosphoinositide-binding activity of Smad2 is essential for its function in TGF-β signaling” (The Journal of Biological Chemistry, 2021).

System: TβRI
Assay: Dual color single-molecule tracking, TβRI and EGFP-Smad2
Type: cell-based
Settings: HeLa cells with endogenous Smad2 suppressed, 10 ng/ml TGF-β
Description: Figure 4 Quantitative imaging analyses of spatiotemporal dynamics of Smad2.A, TIRF images of mouse EGFP-Smad2-WT transfected into HeLa cells whose endogenous Smad2 is suppressed by siRNA. Images were taken before and 5 min after TGF-β stimulation (10 ng/ml) with and without PI(4,5)P2 depletion. A pseudo-coloring scheme was used with orange and blue representing the highest and the lowest intensity, respectively. B, kinetics of TGF-β stimulated (10 ng/ml) PM localization of EGFP-Smad2-WT (blue), -K420A (green), and -W422A (orange) transfected into HeLa cells the endogenous Smad2 of which was suppressed by siRNA. For EGFP-Smad2-WT, the effect of PI(4,5)P2 depletion (black) and TβRI inhibition by SB-431542 (10 μM for 36 h) (red) were measured. Data points indicate average ±S.D. (n = 10 cells). C, spatially resolved PM PI(4,5)P2 concentration ([PI(4,5)P2]) profiles calculated from two-channel cross-sectional images of HeLa cells (before and 5 min after 10 ng/ml TGF-β stimulation and after PI(4,5)P2 depletion). Each cell is a representative of more than ten cells analyzed. Spatially averaged [PI(4,5)P2] values for each cell type are shown. The z-axis scale indicates [PI(4,5)P2] in mol%. A pseudo-coloring scheme with red and blue representing the highest (1.5 mol%) and the lowest (0 mol%) concentration, respectively, is used to illustrate the spatial [PI(4,5)P2] heterogeneity. Scale bars indicate 10 μm. D, dual color single-molecule tracking of EGFP-PLCδ-PH and SNAP-TMR-labeled TβRI at the PM of HeLa cells. Time courses of the half-life of colocalization for SNAP-TMR-labeled TβRI and EGFP-PLCδ-PH after 10 ng/ml TGF-β stimulation were determined with (orange) and without (blue) PI(4,5)P2 depletion. Data points indicate average ±S.D. (n = 10 cells). E, time courses of the half-life of colocalization for SNAP-TMR-labeled TβRI and EGFP-Smad2 determined by dual color single-molecule tracking analysis. Colocalization of TβRI with EGFP-Smad2-WT (blue), -K420A (green), -W422A (orange), E425K (red), Y426A (cyan), and -R427A/R428A (black) transfected into HeLa cells whose endogenous Smad2 was suppressed by siRNA is shown. For EGFP-Smad2-WT, the effect of PI(4,5)P2 depletion (purple) was measured. Data points indicate average ±S.D. (n = 10 cells). […] TEXT PRINTED IN THE PICTURE: (C) PI(4,5)P2: [PI(4,5)P2] = 1.05 ± 0.20 mol% (HeLa unstimulated); [PI(4,5)P2] = 1.00 ± 0.40 mol% (HeLa 5 min after TGFβ); [PI(4,5)P2] = 0.16 ± 0.08 mol% (HeLa After PI(4,5)P2 depletion) DOUBTS OF THE COPYIST ABOUT THIS PICTURE: Panel C: the printed values are measured membrane concentrations of PI(4,5)P2 in HeLa cells under three conditions, not an activity or property of a compound; it is uncertain whether they count as a result for a substance
Single-molecule imaging was performed using a custom-built total internal reflection fluorescence microscope as described previously. HeLa cells were plated on the 8-well chambered coverglass (Lab-Tek, Thermo Fisher Scientific) at the density of 1 × 10^5 for 24 h, EGFP-Smad2 or mutants and SNAP-tagged TβRI were cotransfected into cells using the jetPRIME system (Polyplus-transfection) according to the manufacturer's protocols. The transfected HeLa cells were serum starved for 16 h and subsequently labeled with SNAP-Cell tetramethylrhodamine (TMR)-Star (New England Biolabs). Labeled cells were washed to remove the free dye, stimulated with 10 ng/ml TGF-β, the two protein molecules were simultaneously tracked and analyzed as described. The images were spatially corrected following the algorithm described previously ([39]). All particle tracking, data analysis, and image processing were carried out with in-house programs written in MATLAB. Colocalization analysis of two molecules was performed with a fixed threshold criterion (i.e., <400 nm) for colocalization ([39]). The same size of PM surface was analyzed for each data. […]

Row | Molecule | time of peak colocalization with TMR-SNAP-TβRI after TGF-β stimulation (n = 10 cells) | dynamic colocalization / dwell time with TβRI after TGF-β stimulation
1 | EGFP-Smad2 WT: mouse EGFP-Smad2 wild type transfected into HeLa cells (protein, UniProt Q62432 2-467, looked up, EGFP fusion, mouse EGFP-Smad2 wild type transfected into HeLa cells) Mothers against …: SSILPFTPPVVKRLLGWKKSAGGSGGAGGGEQNGQEEKWCEKAVKSLVKKLKKTGRLDELEKAITTQNCNTKCVTIPSTCSEIWGLSTANTVDQWDTTGLYSFSEQTRSLDGRLQVSHRKGLPHVIYCRLWRWPDLHSHHELKAIENCEYAFNLKKDEVCVNPYHYQRVETPVLPPVLVPRHTEILTELPPLDDYTHSIPENTNFPAGIEPQSNYIPETPPPGYISEDGETSDQQLNQSMDTGSPAELSPTTLSPVNHSLDLQPVTYSEPAFWCSIAYYELNQRVGETFHASQPSLTVDGFTDPSNSERFCLGLLSNVNRNATVEMTRRHIGRGVRLYYIGGEVFAECLSDSAIFVQSPNCNQRYGWHPATVCKIPPGCNLKIFNNQEFAALLAQSVNQGFEAVYQLTRMCTIRMSFVKGWGAEYRRQTVTSTPCWIELHLNGPLQWLDKVLTQMGSPSVRCSSMS | 5 min | –
2 | Smad2-W422A: W422A mutant of full-length Smad2; specific PI(4,5)P2 binding-compromised (protein, left off: His6, N-terminal, state not stated) MSSILPFTPPVVKRLLGWKKSAGGSGGAGGGEQNGQEEKWCEKAVKSLVKKLKKTGRLDELEKAITTQNCNTKCVTIPSTCSEIWGLSTANTVDQWDTTGLYSFSEQTRSLDGRLQVSHRKGLPHVIYCRLWRWPDLHSHHELKAIENCEYAFNLKKDEVCVNPYHYQRVETPVLPPVLVPRHTEILTELPPLDDYTHSIPENTNFPAGIEPQSNYIPETPPPGYISEDGETSDQQLNQSMDTGSPAELSPTTLSPVNHSLDLQPVTYSEPAFWCSIAYYELNQRVGETFHASQPSLTVDGFTDPSNSERFCLGLLSNVNRNATVEMTRRHIGRGVRLYYIGGEVFAECLSDSAIFVQSPNCNQRYGWHPATVCKIPPGCNLKIFNNQEFAALLAQSVNQGFEAVYQLTRMCTIRMSFVKGAGAEYRRQTVTSTPCWIELHLNGPLQWLDKVLTQMGSPSVRCSSMS | – | much reduced TGFβ-stimulated dynamic colocalization with TβRI
3 | Smad2-K420A: K420A mutant of full-length Smad2; predominantly TβRI binding-compromised (protein, left off: His6, N-terminal, state not stated) MSSILPFTPPVVKRLLGWKKSAGGSGGAGGGEQNGQEEKWCEKAVKSLVKKLKKTGRLDELEKAITTQNCNTKCVTIPSTCSEIWGLSTANTVDQWDTTGLYSFSEQTRSLDGRLQVSHRKGLPHVIYCRLWRWPDLHSHHELKAIENCEYAFNLKKDEVCVNPYHYQRVETPVLPPVLVPRHTEILTELPPLDDYTHSIPENTNFPAGIEPQSNYIPETPPPGYISEDGETSDQQLNQSMDTGSPAELSPTTLSPVNHSLDLQPVTYSEPAFWCSIAYYELNQRVGETFHASQPSLTVDGFTDPSNSERFCLGLLSNVNRNATVEMTRRHIGRGVRLYYIGGEVFAECLSDSAIFVQSPNCNQRYGWHPATVCKIPPGCNLKIFNNQEFAALLAQSVNQGFEAVYQLTRMCTIRMSFVAGWGAEYRRQTVTSTPCWIELHLNGPLQWLDKVLTQMGSPSVRCSSMS | – | little response to TGFβ stimulation
4 | Smad2-Y426A: Y426A mutant of full-length Smad2; specific PI(4,5)P2 binding-compromised (protein, left off: His6, N-terminal, state not stated) MSSILPFTPPVVKRLLGWKKSAGGSGGAGGGEQNGQEEKWCEKAVKSLVKKLKKTGRLDELEKAITTQNCNTKCVTIPSTCSEIWGLSTANTVDQWDTTGLYSFSEQTRSLDGRLQVSHRKGLPHVIYCRLWRWPDLHSHHELKAIENCEYAFNLKKDEVCVNPYHYQRVETPVLPPVLVPRHTEILTELPPLDDYTHSIPENTNFPAGIEPQSNYIPETPPPGYISEDGETSDQQLNQSMDTGSPAELSPTTLSPVNHSLDLQPVTYSEPAFWCSIAYYELNQRVGETFHASQPSLTVDGFTDPSNSERFCLGLLSNVNRNATVEMTRRHIGRGVRLYYIGGEVFAECLSDSAIFVQSPNCNQRYGWHPATVCKIPPGCNLKIFNNQEFAALLAQSVNQGFEAVYQLTRMCTIRMSFVKGWGAEARRQTVTSTPCWIELHLNGPLQWLDKVLTQMGSPSVRCSSMS | – | much reduced TGFβ-stimulated dynamic colocalization with TβRI
5 | Smad2- R427A/R428A: double mutant of full-length Smad2; PI(4,5)P2 and TβRI binding-compromised (protein, left off: His6, N-terminal, state not stated) MSSILPFTPPVVKRLLGWKKSAGGSGGAGGGEQNGQEEKWCEKAVKSLVKKLKKTGRLDELEKAITTQNCNTKCVTIPSTCSEIWGLSTANTVDQWDTTGLYSFSEQTRSLDGRLQVSHRKGLPHVIYCRLWRWPDLHSHHELKAIENCEYAFNLKKDEVCVNPYHYQRVETPVLPPVLVPRHTEILTELPPLDDYTHSIPENTNFPAGIEPQSNYIPETPPPGYISEDGETSDQQLNQSMDTGSPAELSPTTLSPVNHSLDLQPVTYSEPAFWCSIAYYELNQRVGETFHASQPSLTVDGFTDPSNSERFCLGLLSNVNRNATVEMTRRHIGRGVRLYYIGGEVFAECLSDSAIFVQSPNCNQRYGWHPATVCKIPPGCNLKIFNNQEFAALLAQSVNQGFEAVYQLTRMCTIRMSFVKGWGAEYAAQTVTSTPCWIELHLNGPLQWLDKVLTQMGSPSVRCSSMS | – | low response to TGFβ stimulation
6 | Smad2-E425K: charge-reversal mutant of full-length Smad2; PI(4,5)P2 and TβRI binding-enhanced (protein, left off: His6, N-terminal, state not stated) MSSILPFTPPVVKRLLGWKKSAGGSGGAGGGEQNGQEEKWCEKAVKSLVKKLKKTGRLDELEKAITTQNCNTKCVTIPSTCSEIWGLSTANTVDQWDTTGLYSFSEQTRSLDGRLQVSHRKGLPHVIYCRLWRWPDLHSHHELKAIENCEYAFNLKKDEVCVNPYHYQRVETPVLPPVLVPRHTEILTELPPLDDYTHSIPENTNFPAGIEPQSNYIPETPPPGYISEDGETSDQQLNQSMDTGSPAELSPTTLSPVNHSLDLQPVTYSEPAFWCSIAYYELNQRVGETFHASQPSLTVDGFTDPSNSERFCLGLLSNVNRNATVEMTRRHIGRGVRLYYIGGEVFAECLSDSAIFVQSPNCNQRYGWHPATVCKIPPGCNLKIFNNQEFAALLAQSVNQGFEAVYQLTRMCTIRMSFVKGWGAKYRRQTVTSTPCWIELHLNGPLQWLDKVLTQMGSPSVRCSSMS | – | stronger interaction with TβRI in terms of both amplitude and duration
